T1: FcgRIIa H (human, UniProt P12318)
T1 chain: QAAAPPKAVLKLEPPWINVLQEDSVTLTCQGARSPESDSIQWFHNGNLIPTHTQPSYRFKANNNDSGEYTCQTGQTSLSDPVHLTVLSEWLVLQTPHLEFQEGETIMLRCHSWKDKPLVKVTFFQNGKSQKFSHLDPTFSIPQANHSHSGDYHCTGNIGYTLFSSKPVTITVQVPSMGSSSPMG

T2: FcgRIIa R (human, UniProt P12318)
T2 chain: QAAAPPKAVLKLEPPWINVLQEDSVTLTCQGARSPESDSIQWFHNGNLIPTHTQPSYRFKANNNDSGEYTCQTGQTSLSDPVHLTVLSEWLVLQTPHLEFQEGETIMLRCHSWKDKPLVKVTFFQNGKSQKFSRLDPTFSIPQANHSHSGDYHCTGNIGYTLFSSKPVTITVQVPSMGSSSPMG

T3: FcgRIa (human, UniProt P12314)
T3 chain: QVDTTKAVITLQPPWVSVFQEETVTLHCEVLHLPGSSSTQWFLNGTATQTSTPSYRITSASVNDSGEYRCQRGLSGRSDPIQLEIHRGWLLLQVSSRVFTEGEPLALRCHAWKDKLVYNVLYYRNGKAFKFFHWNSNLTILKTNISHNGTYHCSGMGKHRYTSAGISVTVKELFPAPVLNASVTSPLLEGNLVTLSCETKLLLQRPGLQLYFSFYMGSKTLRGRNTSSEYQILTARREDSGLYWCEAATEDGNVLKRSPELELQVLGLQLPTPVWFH

T4: FcgRIIb (human, UniProt P31994)
T4 chain: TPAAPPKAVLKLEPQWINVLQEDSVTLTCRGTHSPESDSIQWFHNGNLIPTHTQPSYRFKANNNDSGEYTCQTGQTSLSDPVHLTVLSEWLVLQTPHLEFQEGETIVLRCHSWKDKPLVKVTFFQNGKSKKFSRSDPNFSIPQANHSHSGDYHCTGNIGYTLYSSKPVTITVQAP


Key:
Assay in all cases: SPR
[1] = molecular target: T1, FcgRIIa H
[2] = molecular target: T2, FcgRIIa R
[3] = molecular target: T3, FcgRIa
[4] = molecular target: FcgRIIIa F (human, UniProt P08637)
[5] = molecular target: T4, FcgRIIb
[6] = molecular target: FcgRIIIa V (human, UniProt P08637)
FcgRIIIa V, sequence (P08637 17-208 F176V): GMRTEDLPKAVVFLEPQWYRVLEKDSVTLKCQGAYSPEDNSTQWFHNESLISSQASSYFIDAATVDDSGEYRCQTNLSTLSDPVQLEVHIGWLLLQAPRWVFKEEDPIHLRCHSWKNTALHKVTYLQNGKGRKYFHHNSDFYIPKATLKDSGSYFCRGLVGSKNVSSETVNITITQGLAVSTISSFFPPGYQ

FcgRIIIa F, sequence (P08637 17-208): as the sequence (P08637 17-208 F176V) above, with V160F counted along it

Binder | Kd [1] [nM] | Kd [2] [nM] | Kd [3] [nM] | Kd [4] [nM] | Kd [5] [nM] | Kd [6] [nM]
H240-Kn212/H240-Hl076/L73-k0 (antibody) chain 1: QDQLVQSGAEVKKPGASVKVSCKASGFNIKDTYIQWVRQAPGQGLEWMGRIDPLRKQTKYREKFEGRVTITADTSTNTAYMELSSLRSEDTAVYYCVRSGREFDYWGQGTLVTVSSASTKGPSVFPLAPSSKSTSGGTAALGCLVKDYFPEPVTVSWNSGALTSGVHTFPAVLQSSGLYSLSSVVTVPSSSLGTQTYICNVNHKPSNTKVDKKVEPKSCDKTHTCPPCPAPETQWGPMVFLFPPKPKDTLMISRTPEVTCVVVDVSDEEPEVKFNWYVDGVEVHNAKTKPREEQYNATYRVVSVLTVLHQDWLNGKEYKCKVSNKALPAPIEKTISKAKGQPREPQVCTLPPSRDELTKNQVSLWCLVKGFYPSDIAVEWESNGQPENNYKTTPPVLDSDGSFFLYSKLTVDKSRWQQGNVFSCSVMHEALHNHYTQKSLSLSP chain 2: QDQLVQSGAEVKKPGASVKVSCKASGFNIKDTYIQWVRQAPGQGLEWMGRIDPLRKQTKYREKFEGRVTITADTSTNTAYMELSSLRSEDTAVYYCVRSGREFDYWGQGTLVTVSSASTKGPSVFPLAPSSKSTSGGTAALGCLVKDYFPEPVTVSWNSGALTSGVHTFPAVLQSSGLYSLSSVVTVPSSSLGTQTYICNVNHKPSNTKVDKKVEPKSCDKTHTCPPCPAPELLGGPSVFLFPPKPKDTLMISRTPEVTCVVVDVSHEEPEVKFNWYVDGVEVHNAKTKPREEQYNSTYRVVSVLTVLHQDWLNGKEYKCKVSNDALPMPIEETISKAKGQPREPQVYTLPPSRCELTKNQVSLSCAVKGFYPSDIAVEWESNGQPENNYKTTPPVLDSDGSFFLVSKLTVDKSRWQQGNVFSCSVMHEALHNHYTQKSLSLSP chain 3: DIQMTQSPSSLSASVGDRVTITCRASQDIHKYIAWYQQKPGQAPRLLIQYTSTLQPGVPSRFSGSGSGTDYTFTISSLQPEDIATYYCLQYEQLRTFGGGTKVEIKRTVAAPSVFIFPPSDEQLKSGTASVVCLLNNFYPREAKVQWKVDNALQSGNSQESVTEQDSKDSTYSLSSTLTLSKADYEKHKVYACEVTHQGLSSPVTKSFNRGEC | 230 | 640 | 0.094 | 2.1 | 5200 | 0.58
H240-Kn184/H240-Hl068/L73-k0 (antibody) chain 1: QDQLVQSGAEVKKPGASVKVSCKASGFNIKDTYIQWVRQAPGQGLEWMGRIDPLRKQTKYREKFEGRVTITADTSTNTAYMELSSLRSEDTAVYYCVRSGREFDYWGQGTLVTVSSASTKGPSVFPLAPSSKSTSGGTAALGCLVKDYFPEPVTVSWNSGALTSGVHTFPAVLQSSGLYSLSSVVTVPSSSLGTQTYICNVNHKPSNTKVDKKVEPKSCDKTHTCPPCPAPEEYWGPMVFLFPPKPKDTLMISRTPEVTCVVVDVSDEDPEVKFNWYVDGVEVHNAKTKPREEQYNATYRVVSVLTVLHQDWLNGKEYKCKVSNKDLPAPIEKTISKAKGQPREPQVCTLPPSRDELTKNQVSLWCLVKGFYPSDIAVEWESNGQPENNYKTTPPVLDSDGSFFLYSKLTVDKSRWQQGNVFSCSVMHEALHNHYTQKSLSLSP chain 2: QDQLVQSGAEVKKPGASVKVSCKASGFNIKDTYIQWVRQAPGQGLEWMGRIDPLRKQTKYREKFEGRVTITADTSTNTAYMELSSLRSEDTAVYYCVRSGREFDYWGQGTLVTVSSASTKGPSVFPLAPSSKSTSGGTAALGCLVKDYFPEPVTVSWNSGALTSGVHTFPAVLQSSGLYSLSSVVTVPSSSLGTQTYICNVNHKPSNTKVDKKVEPKSCDKTHTCPPCPAPELLGGPSVFLFPPKPKDTLMISRTPEVTCVVVDVSHEEPEVKFNWYVDGVEVHNAKTKPREEQYNSTYRVVSVLTVLHQDWLNGKEYKCKVSNDALPKPIEETISKAKGQPREPQVYTLPPSRCELTKNQVSLSCAVKGFYPSDIAVEWESNGQPENNYKTTPPVLDSDGSFFLVSKLTVDKSRWQQGNVFSCSVMHEALHNHYTQKSLSLSP chain 3: DIQMTQSPSSLSASVGDRVTITCRASQDIHKYIAWYQQKPGQAPRLLIQYTSTLQPGVPSRFSGSGSGTDYTFTISSLQPEDIATYYCLQYEQLRTFGGGTKVEIKRTVAAPSVFIFPPSDEQLKSGTASVVCLLNNFYPREAKVQWKVDNALQSGNSQESVTEQDSKDSTYSLSSTLTLSKADYEKHKVYACEVTHQGLSSPVTKSFNRGEC | 70 | 27 | 0.16 | 2.2 | 150 | 0.34

Continued by falling Kd [1], values first:

Kd [1] [nM] | Kd [2] [nM] | Kd [3] [nM] | Kd [4] [nM] | Kd [5] [nM] | Kd [6] [nM] | Binder
330 | 1100 | 0.061 | 3.4 | 7100 | 0.8 | H240-Kn214/H240-Hl076/L73-k0 (antibody) chain 1: QDQLVQSGAEVKKPGASVKVSCKASGFNIKDTYIQWVRQAPGQGLEWMGRIDPLRKQTKYREKFEGRVTITADTSTNTAYMELSSLRSEDTAVYYCVRSGREFDYWGQGTLVTVSSASTKGPSVFPLAPSSKSTSGGTAALGCLVKDYFPEPVTVSWNSGALTSGVHTFPAVLQSSGLYSLSSVVTVPSSSLGTQTYICNVNHKPSNTKVDKKVEPKSCDKTHTCPPCPAPEGQWGPMVFLFPPKPKDTLMISRTPEVTCVVVDVSDEEPEVKFNWYVDGVEVHNAKTKPREEQYNATYRVVSVLTVLHQDWLNGKEYKCKVSNKALPAPIEKTISKAKGQPREPQVCTLPPSRDELTKNQVSLWCLVKGFYPSDIAVEWESNGQPENNYKTTPPVLDSDGSFFLYSKLTVDKSRWQQGNVFSCSVMHEALHNHYTQKSLSLSP chain 2: QDQLVQSGAEVKKPGASVKVSCKASGFNIKDTYIQWVRQAPGQGLEWMGRIDPLRKQTKYREKFEGRVTITADTSTNTAYMELSSLRSEDTAVYYCVRSGREFDYWGQGTLVTVSSASTKGPSVFPLAPSSKSTSGGTAALGCLVKDYFPEPVTVSWNSGALTSGVHTFPAVLQSSGLYSLSSVVTVPSSSLGTQTYICNVNHKPSNTKVDKKVEPKSCDKTHTCPPCPAPELLGGPSVFLFPPKPKDTLMISRTPEVTCVVVDVSHEEPEVKFNWYVDGVEVHNAKTKPREEQYNSTYRVVSVLTVLHQDWLNGKEYKCKVSNDALPMPIEETISKAKGQPREPQVYTLPPSRCELTKNQVSLSCAVKGFYPSDIAVEWESNGQPENNYKTTPPVLDSDGSFFLVSKLTVDKSRWQQGNVFSCSVMHEALHNHYTQKSLSLSP chain 3: DIQMTQSPSSLSASVGDRVTITCRASQDIHKYIAWYQQKPGQAPRLLIQYTSTLQPGVPSRFSGSGSGTDYTFTISSLQPEDIATYYCLQYEQLRTFGGGTKVEIKRTVAAPSVFIFPPSDEQLKSGTASVVCLLNNFYPREAKVQWKVDNALQSGNSQESVTEQDSKDSTYSLSSTLTLSKADYEKHKVYACEVTHQGLSSPVTKSFNRGEC
250 | 1200 | 0.083 | 2.4 | 7500 | 0.62 | H240-Kn209/H240-Hl076/L73-k0 (antibody) chain 1: QDQLVQSGAEVKKPGASVKVSCKASGFNIKDTYIQWVRQAPGQGLEWMGRIDPLRKQTKYREKFEGRVTITADTSTNTAYMELSSLRSEDTAVYYCVRSGREFDYWGQGTLVTVSSASTKGPSVFPLAPSSKSTSGGTAALGCLVKDYFPEPVTVSWNSGALTSGVHTFPAVLQSSGLYSLSSVVTVPSSSLGTQTYICNVNHKPSNTKVDKKVEPKSCDKTHTCPPCPAPEQQWGPMVFLFPPKPKDTLMISRTPEVTCVVVDVSDEEPEVKFNWYVDGVEVHNAKTKPREEQYNATYRVVSVLTVLHQDWLNGKEYKCKVSNKALPAPIEKTISKAKGQPREPQVCTLPPSRDELTKNQVSLWCLVKGFYPSDIAVEWESNGQPENNYKTTPPVLDSDGSFFLYSKLTVDKSRWQQGNVFSCSVMHEALHNHYTQKSLSLSP chain 2: QDQLVQSGAEVKKPGASVKVSCKASGFNIKDTYIQWVRQAPGQGLEWMGRIDPLRKQTKYREKFEGRVTITADTSTNTAYMELSSLRSEDTAVYYCVRSGREFDYWGQGTLVTVSSASTKGPSVFPLAPSSKSTSGGTAALGCLVKDYFPEPVTVSWNSGALTSGVHTFPAVLQSSGLYSLSSVVTVPSSSLGTQTYICNVNHKPSNTKVDKKVEPKSCDKTHTCPPCPAPELLGGPSVFLFPPKPKDTLMISRTPEVTCVVVDVSHEEPEVKFNWYVDGVEVHNAKTKPREEQYNSTYRVVSVLTVLHQDWLNGKEYKCKVSNDALPMPIEETISKAKGQPREPQVYTLPPSRCELTKNQVSLSCAVKGFYPSDIAVEWESNGQPENNYKTTPPVLDSDGSFFLVSKLTVDKSRWQQGNVFSCSVMHEALHNHYTQKSLSLSP chain 3: DIQMTQSPSSLSASVGDRVTITCRASQDIHKYIAWYQQKPGQAPRLLIQYTSTLQPGVPSRFSGSGSGTDYTFTISSLQPEDIATYYCLQYEQLRTFGGGTKVEIKRTVAAPSVFIFPPSDEQLKSGTASVVCLLNNFYPREAKVQWKVDNALQSGNSQESVTEQDSKDSTYSLSSTLTLSKADYEKHKVYACEVTHQGLSSPVTKSFNRGEC
